The target in assay [1] is reconstituted nascent HDL (rHDL) particle made with isolated human apoA-I (human) (UniProt P02647). As to the kind of experiment: SPR (BIAcore 3000), rHDL immobilized on CM5 chip, apparent Kd, 1:1 binding with drifting baseline.
For assay [2] the target is unchanged. As to the kind of experiment: SPR (BIAcore 3000), rHDL immobilized on CM5 chip, rPON1 500-2000 nM in flow.
Assay [3] shares this target. As to the kind of experiment: SPR, rHDL immobilized on CM5 chip.

Sequence of reconstituted nascent HDL (rHDL) particle made with isolated human apoA-I (human) (P02647 25-267 limits assumed): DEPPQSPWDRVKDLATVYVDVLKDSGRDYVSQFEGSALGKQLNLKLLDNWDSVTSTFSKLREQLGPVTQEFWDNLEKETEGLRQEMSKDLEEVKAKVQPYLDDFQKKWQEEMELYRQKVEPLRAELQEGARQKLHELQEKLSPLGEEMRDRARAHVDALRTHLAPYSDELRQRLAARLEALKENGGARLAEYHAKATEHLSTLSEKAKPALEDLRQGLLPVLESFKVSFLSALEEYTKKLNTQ

A word on the koff: it is a measure of how fast the partners let go of each other. A low value points to slow dissociation. A word on the kon: it is a measure of how fast the partners come together. The low end stands for slower complex formation, the high end for faster complex formation. Regarding “rPON1 pan E mutant (Leu9→Glu9, Tyr185→Glu185 and Tyr293→Glu293) with C-terminal His8 tag (enzyme)”, the Kd in assay [1] was 59 µM. In assay [2], this substance displayed a koff of 0.05 s⁻¹ and a kon of 850 M⁻¹ s⁻¹.
With “rPON1 pan K mutant (Leu9→Lys9, Tyr185→Lys185 and Tyr293→Lys293) with C-terminal His8 tag (enzyme)”, in assay [3], the fold less binding capacity compared with rPON1 WT amounted to 1000 fold. In assay [2], this substance registered a koff of 6e-05 s⁻¹.
Consider “recombinant paraoxonase 1 (PON1) variant G3C9, His-tagged (rPON1 WT) (enzyme)”, for which the Kd in assay [1] was 0.00071 µM. In addition, in assay [2], the koff was found to be 8.5e-07 s⁻¹ and the kon was 1200 M⁻¹ s⁻¹.

For the origin of these results see US20170115280A1.
